Assay results published in the Immune Epitope Database (IEDB).
pIC50, pKd: −log10 of the molar value.

Tests used:
HLA-B*18:01 [1] = experiment: IEDB peptide-MHC binding, purified MHC/competitive/radioactivity; filed as Kd, often an IC50 or EC50 that approximates it; ≥ and ≤ were set here for values at or beyond the usual limits of such assays
HLA-B*44:02 = experiment: as above
HLA-B*45:01 = experiment: as above
HLA-B*40:02 = experiment: as above
HLA-B*44:03 = experiment: as above
HLA-B*40:01 = experiment: as above
HLA-A*02:17 = experiment: as above
HLA-A*02:03 [2] = experiment: as above
HLA-A*02:01 [3] = experiment: as above
HLA-B*08:01 [4] = experiment: as above; conditions: source organism: Dengue virus 2 Jamaica/1409/1983
HLA-B*15:01 [5] = experiment: as above; conditions: source organism: Dengue virus 2 Jamaica/1409/1983
HLA-A*02:06 [6] = experiment: as above
HLA-C*14:02 = experiment: IEDB peptide-MHC binding, purified MHC/direct/fluorescence; filed as Kd, often an IC50 or EC50 that approximates it; ≥ and ≤ were set here for values at or beyond the usual limits of such assays; conditions: source organism: Vibrio vulnificus YJ016
HLA-A*02:01 [7] = experiment: IEDB peptide-MHC binding, purified MHC/competitive/fluorescence; filed as Kd, often an IC50 or EC50 that approximates it; ≥ and ≤ were set here for values at or beyond the usual limits of such assays
HLA-A*02:06 [8] = experiment: as above; conditions: source organism: Vibrio vulnificus YJ016
HLA-A*24:02 = experiment: IEDB peptide-MHC binding, purified MHC/competitive/fluorescence; ≥ and ≤ were set here for values at or beyond the usual limits of such assays
HLA-A*02:01 [9] = experiment: as above
HLA-B*08:01 [10] = experiment: as above
HLA-B*15:01 [11] = experiment: as above
HLA-A*68:02 [12] = experiment: IEDB peptide-MHC binding, purified MHC/competitive/radioactivity; filed as Kd, often an IC50 or EC50 that approximates it; ≥ and ≤ were set here for values at or beyond the usual limits of such assays; conditions: source organism: Dengue virus 4 Philippines/H241/1956
HLA-A*24:03 = experiment: IEDB peptide-MHC binding, purified MHC/direct/fluorescence; filed as Kd, often an IC50 or EC50 that approximates it; ≥ and ≤ were set here for values at or beyond the usual limits of such assays; conditions: source organism: Zaire ebolavirus
HLA-A*68:02 [13] = experiment: as above; conditions: source organism: Zaire ebolavirus
HLA-A*03:01 = experiment: as above; conditions: source organism: Zaire ebolavirus
HLA-A*02:03 [14] = experiment: as above; conditions: source organism: Zaire ebolavirus
HLA-A*29:02 = experiment: as above; conditions: source organism: Zaire ebolavirus
HLA-A*02:16 = experiment: as above; conditions: source organism: Zaire ebolavirus
HLA-A*02:11 = experiment: as above; conditions: source organism: Zaire ebolavirus
HLA-A*02:19 = experiment: as above; conditions: source organism: Zaire ebolavirus
HLA-B*15:01 [15] = experiment: as above; conditions: source organism: Zaire ebolavirus
HLA-A*02:12 = experiment: as above; conditions: source organism: Zaire ebolavirus
HLA-B*18:01 [16] = experiment: IEDB peptide-MHC binding, purified MHC/competitive/fluorescence; filed as Kd, often an IC50 or EC50 that approximates it; ≥ and ≤ were set here for values at or beyond the usual limits of such assays; conditions: source organism: Zaire ebolavirus
HLA-B*46:01 = experiment: as above; conditions: source organism: Zaire ebolavirus
HLA-B*51:01 = experiment: as above; conditions: source organism: Zaire ebolavirus
HLA-B*57:01 = experiment: as above; conditions: source organism: Zaire ebolavirus
HLA-B*27:03 = experiment: as above; conditions: source organism: Zaire ebolavirus
HLA-B*39:01 = experiment: as above; conditions: source organism: Zaire ebolavirus
HLA-A*69:01 = experiment: as above; conditions: source organism: Zaire ebolavirus
HLA-B*15:17 = experiment: as above; conditions: source organism: Zaire ebolavirus
HLA-A*26:01 = experiment: as above; conditions: source organism: Zaire ebolavirus
[17] = source organism: SARS coronavirus Tor2
[18] = source organism: Mammarenavirus guanaritoense
[19] = source organism: Lassa virus Josiah
[20] = source organism: Dengue virus 2 Jamaica/1409/1983
[21] = source organism: Sudan ebolavirus
[22] = source organism: Zaire ebolavirus
[23] = source organism: Mammarenavirus lassaense
[24] = source organism: Dengue virus 4 Philippines/H241/1956
[25] = source organism: Mammarenavirus juninense
[26] = source organism: Mammarenavirus whitewaterense

For TEIEPKLDG, the pKd (HLA-B*18:01 [1]; [17]) was ≤ 4.11, the pKd (HLA-B*44:02; [17]) was 4.75 and the pKd (HLA-B*45:01; [17]) was ≤ 4.54. For the same sequence, the pKd (HLA-B*40:02; [17]) was ≤ 4.13, the pKd (HLA-B*44:03; [17]) was 4.87 and the pKd (HLA-B*40:01; [17]) was ≤ 4.12.
YEERLNEQLL was tested, and the pKd (HLA-B*18:01 [1]; [18]) was 5.22, the pKd (HLA-B*44:02; [18]) was ≤ 5.00 and the pKd (HLA-B*45:01; [18]) was ≤ 4.15. For the same sequence, the pKd (HLA-B*40:02; [18]) was 5.79, the pKd (HLA-B*44:03; [18]) was 4.84 and the pKd (HLA-B*40:01; [18]) was 5.61.
HEGHQTAAF was tested, and the pKd (HLA-B*18:01 [1]; [17]) was 5.37, the pKd (HLA-B*44:02; [17]) was 5.95 and the pKd (HLA-B*45:01; [17]) was ≤ 4.58. It also gave a pKd (HLA-B*40:02; [17]) of 5.55, a pKd (HLA-B*44:03; [17]) of 5.32 and a pKd (HLA-B*40:01; [17]) of 5.53.
For SEGKDTPGGY, the pKd (HLA-B*18:01 [1]; [19]) was ≤ 4.22, the pKd (HLA-B*44:02; [19]) was 5.84 and the pKd (HLA-B*45:01; [19]) was ≤ 4.15. The pKd (HLA-B*40:02; [19]) was ≤ 4.15, the pKd (HLA-B*44:03; [19]) was 5.76 and the pKd (HLA-B*40:01; [19]) was ≤ 4.60.
With SEAREHLKNG the pKd (HLA-B*18:01 [1]; [17]) was ≤ 4.15, the pKd (HLA-B*44:02; [17]) was ≤ 4.44 and the pKd (HLA-B*45:01; [17]) was 5.08. For the same sequence, the pKd (HLA-B*40:02; [17]) was 5.18, the pKd (HLA-B*44:03; [17]) was ≤ 4.55 and the pKd (HLA-B*40:01; [17]) was ≤ 4.41.
In the case of KEQYCALSPG, the pKd (HLA-B*18:01 [1]; [17]) was ≤ 4.15, the pKd (HLA-B*44:02; [17]) was 5.58 and the pKd (HLA-B*45:01; [17]) was 6.59. It also gave a pKd (HLA-B*40:02; [17]) of 6.08, a pKd (HLA-B*44:03; [17]) of 5.46 and a pKd (HLA-B*40:01; [17]) of 5.33.
LMMATIGIAL was tested, and the pKd (HLA-A*02:17; [20]) was 6.77, the pKd (HLA-A*02:03 [2]; [20]) was 8.05 and the pKd (HLA-A*02:01 [3]; [20]) was 7.95. It also gave a pKd (HLA-B*08:01 [4]) of 6.40, a pKd (HLA-B*15:01 [5]) of 8.19 and a pKd (HLA-A*02:06 [6]; [20]) of 7.87.
Sequence RQIQGIAAF has a pKd (HLA-C*14:02) of 5.58, a pKd (HLA-A*02:01 [7]; source organism: Vibrio vulnificus YJ016) of 5.78 and a pKd (HLA-A*02:06 [8]) of 7.88.
With TVIYRGVNF the pIC50 (HLA-A*24:02; [21]) was 5.45, the pIC50 (HLA-A*02:01 [9]; [21]) was ≤ 3.10 and the pIC50 (HLA-B*08:01 [10]; [21]) was ≤ 4.06. It also gave a pIC50 (HLA-B*15:01 [11]; [21]) of 4.55.
HSQGREAAV was tested, and the pIC50 (HLA-A*02:01 [9]; [22]) was ≤ 3.59 and the pIC50 (HLA-B*08:01 [10]; [22]) was ≤ 3.77.
FDAATTGSL was tested, and the pKd (HLA-B*18:01 [1]; [23]) was ≤ 4.41, the pKd (HLA-B*44:02; [23]) was ≤ 4.65 and the pKd (HLA-B*45:01; [23]) was 4.84. For the same sequence, the pKd (HLA-B*40:02; [23]) was 5.64, the pKd (HLA-B*44:03; [23]) was ≤ 4.35 and the pKd (HLA-B*40:01; [23]) was 4.78.
In the case of NFLIKFLLI, the pIC50 (HLA-A*24:02; [22]) was 8.03, the pIC50 (HLA-A*02:01 [9]; [22]) was ≤ 3.21 and the pIC50 (HLA-B*08:01 [10]; [22]) was ≤ 2.79.
In the case of MMKDEPVVF, the pIC50 (HLA-A*24:02; [22]) was 6.66, the pIC50 (HLA-A*02:01 [9]; [22]) was ≤ 3.94 and the pIC50 (HLA-B*08:01 [10]; [22]) was ≤ 3.69. It also gave a pIC50 (HLA-B*15:01 [11]; [22]) of 5.05.
In the case of MVIGMAMTTV, the pKd (HLA-A*68:02 [12]) was 8.49, the pKd (HLA-A*02:17; [24]) was 6.88 and the pKd (HLA-A*02:03 [2]; [24]) was 9.85. It also gave a pKd (HLA-A*02:01 [3]; [24]) of 8.03 and a pKd (HLA-A*02:06 [6]; [24]) of 8.28.
PDSCLNGKL was tested, and the pKd (HLA-B*18:01 [1]; [25]) was ≤ 4.70, the pKd (HLA-B*44:02; [25]) was ≤ 4.11 and the pKd (HLA-B*45:01; [25]) was ≤ 4.59. The pKd (HLA-B*40:02; [25]) was ≤ 4.11, the pKd (HLA-B*44:03; [25]) was ≤ 4.11 and the pKd (HLA-B*40:01; [25]) was ≤ 4.17.
In the case of LEITDVTTL, the pKd (HLA-B*18:01 [1]; [26]) was 6.34, the pKd (HLA-B*44:02; [26]) was 7.59 and the pKd (HLA-B*45:01; [26]) was ≤ 4.11. It also gave a pKd (HLA-B*40:02; [26]) of 7.10, a pKd (HLA-B*44:03; [26]) of 7.21 and a pKd (HLA-B*40:01; [26]) of 6.90.
For TMTLWYMWQV, the pKd (HLA-A*02:17; [24]) was 6.36, the pKd (HLA-A*02:01 [3]; [24]) was 7.54 and the pKd (HLA-A*02:06 [6]; [24]) was 7.13.
In the case of HQKKNEISF, the pKd (HLA-A*24:03) was ≤ 4.70, the pKd (HLA-A*68:02 [13]) was ≤ 4.70 and the pKd (HLA-A*03:01) was ≤ 4.70. The pKd (HLA-A*02:03 [14]) was ≤ 4.70, the pKd (HLA-A*29:02) was ≤ 4.70 and the pKd (HLA-A*02:16) was ≤ 4.70. The pKd (HLA-A*02:11) was ≤ 4.70, the pKd (HLA-A*02:19) was ≤ 4.70 and the pKd (HLA-B*15:01 [15]) was 6.63. The pKd (HLA-A*02:12) was ≤ 4.70, the pKd (HLA-B*18:01 [16]) was ≤ 4.70 and the pKd (HLA-B*46:01) was ≤ 4.70. The pKd (HLA-B*51:01) was ≤ 4.70, the pKd (HLA-B*57:01) was ≤ 4.70 and the pKd (HLA-B*27:03) was ≤ 4.70. For the same sequence, the pKd (HLA-B*39:01) was ≤ 4.70, the pKd (HLA-A*69:01) was ≤ 4.70 and the pKd (HLA-A*02:01 [7]; [22]) was ≤ 4.70. For the same sequence, the pKd (HLA-B*15:17) was ≤ 4.70, the pKd (HLA-A*26:01) was ≤ 4.70 and the pIC50 (HLA-A*24:02; [22]) was ≤ 3.94. For the same sequence, the pIC50 (HLA-B*08:01 [10]; [22]) was 4.37 and the pIC50 (HLA-B*15:01 [11]; [22]) was 5.18.
